Experiment [1] concerns the target PneKC without His tag, co-expressed with N-terminally His-tagged PneA (Streptococcus pneumoniae). As to the kind of experiment: negative-stain EM.
Experiment [2] has as its target T1, PneKC, wild type, N-terminally His-tagged, expressed without PneA (apo PneKC) (Streptococcus pneumoniae). Description: negative-stain EM.
The target of experiment [3] is T1, PneKC, wild type, N-terminally …. As to the kind of experiment: SEC.
The target of experiment [4] is PneKC, wild type, N-terminal His7 tag, co-expressed with PneA from pQLinkN-PneKC-PneA (Streptococcus pneumoniae). As to the kind of experiment: SEC.

With “PneKC without His tag, co-expressed with N-terminally His-tagged PneA (enzyme)”, the stoichiometry N in experiment [1] was 2.

B1: PneKC, wild type, N-terminally His-tagged, expressed without PneA (apo PneKC) (enzyme)
chain: MDYNFNLEHPFFFTNNDYSTDTSIKYQASLPFNWHEVMNNDEWVYQYPIGKFVERQGWKIHISSEYNSSHELLQDVAKICHEMRIPFKHLSTEDKFIMRNGKLVSRGFSGKFITCYPNQNELESVLQRLESALKQYNGPYILSDKRWDEAPIYLRYGVFRPSRDDEKKVAIDELIVGDEVVKDERLPVFKIPKGIVPPDFLNKWLDKKDKKQGDFPFIIDNAIRFSNSGGIYNARLKEDGKKIILKEARPYTGLGFDGTYSSEKLASECKALKILNEWSEAPKIYWHGKIWEHTFLGIEHMKGVPLNRWVTNNFPLYEVVDKTKDYLLRVSKIVEKLIDLTNKFHSENVYHQDLHLGNILVKDEDEISIIDWEQAVFSNDEKVVHKVAAPGFRAWRETLPSEIDWYGIRQIAHYLYMPLVTTSDLTYNYVSQTRIEGKKLFESLGYTREHIDYVESLLSYLDSKCPQIENISRKKVLKPMHEIRTIESEQDIQDFIIKLLRGFTLTYGQWRKEFQSRFFPVHYYGLNFNQGIAFSDLAILWSYQQLAKKVKNFKFDDYYEIRTQVINEAVNNFKKSSLSGLFDGKIGTIWLIYEFGEIDRAVELFTTHFIEIFENSQNKNLYSGQAGILLVGLYFLSKGEIDNKLGEEILIRLREYTLNYIENPETFCKVGASDVQSNDPYENFGGLLYGHAGVAWLFGEAYKLTGESIYKNGLELAVDKELVAYKVDSNNSLQYSQGHRLLPYLATGSAGLLLLINRNKEILSSKYLKYLTSLERATDVVFCVLPGLFNGFCGLEVANNIYSDIDDNFSGQKKLIEQLYRYLCVIEEGFVIAGDNGLKITTDIASGFAGVAIGLVSIMDNKLTILPQI
modifications: not checked
As for B1, the stoichiometry N in experiment [2] and in experiment [3] was 2 in each case.

B2: PneKC, wild type, N-terminal His7 tag, co-expressed with PneA from pQLinkN-PneKC-PneA (enzyme)
chain: B1 chain
modifications: not checked
As for B2, the stoichiometry N in experiment [4] amounted to 2.
